Values quoted from earlier work, collected in article PMC3373146.
Read-outs that look alike come from different tables or passages of the source.

What was measured:
KCa2.1 (SK1) = KCa2.1 (SK1) (UniProt Q92952)
KCa2.2 (SK2) = KCa2.2 (SK2) (UniProt Q9H2S1)
KCa2.3 (SK3) = KCa2.3 (SK3) (UniProt Q9UGI6)
Kv2.1 [1] = target: Kv2.1 (UniProt Q14721)
Kv2.1 [2] = target: Kv2.1 (UniProt Q14721); remark: listed apart in the source

Kv2.1, sequence (Q14721 whole entry): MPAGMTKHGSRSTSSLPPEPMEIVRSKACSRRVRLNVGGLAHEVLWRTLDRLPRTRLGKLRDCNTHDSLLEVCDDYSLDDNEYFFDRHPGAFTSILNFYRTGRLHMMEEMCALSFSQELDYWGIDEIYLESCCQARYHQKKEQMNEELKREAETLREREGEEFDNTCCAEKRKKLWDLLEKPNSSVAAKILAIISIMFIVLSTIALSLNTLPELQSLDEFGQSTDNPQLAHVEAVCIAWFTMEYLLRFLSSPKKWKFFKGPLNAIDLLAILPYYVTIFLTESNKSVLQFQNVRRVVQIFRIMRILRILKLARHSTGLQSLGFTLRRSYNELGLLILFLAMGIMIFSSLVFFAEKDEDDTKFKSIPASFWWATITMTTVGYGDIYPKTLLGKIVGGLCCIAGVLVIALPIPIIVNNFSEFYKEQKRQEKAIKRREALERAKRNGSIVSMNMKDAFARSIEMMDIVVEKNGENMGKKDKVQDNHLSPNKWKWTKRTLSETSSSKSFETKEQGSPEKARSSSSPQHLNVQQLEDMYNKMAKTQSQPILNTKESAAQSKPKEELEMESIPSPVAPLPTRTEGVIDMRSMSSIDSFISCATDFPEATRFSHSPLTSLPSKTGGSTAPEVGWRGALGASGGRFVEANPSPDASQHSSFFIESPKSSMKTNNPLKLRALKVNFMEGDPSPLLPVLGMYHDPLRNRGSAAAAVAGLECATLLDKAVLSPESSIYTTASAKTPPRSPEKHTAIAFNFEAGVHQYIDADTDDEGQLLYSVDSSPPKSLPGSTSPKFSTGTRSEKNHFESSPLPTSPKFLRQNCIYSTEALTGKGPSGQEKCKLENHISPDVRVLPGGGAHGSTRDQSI
KCa2.1 (SK1), sequence (Q92952 whole entry): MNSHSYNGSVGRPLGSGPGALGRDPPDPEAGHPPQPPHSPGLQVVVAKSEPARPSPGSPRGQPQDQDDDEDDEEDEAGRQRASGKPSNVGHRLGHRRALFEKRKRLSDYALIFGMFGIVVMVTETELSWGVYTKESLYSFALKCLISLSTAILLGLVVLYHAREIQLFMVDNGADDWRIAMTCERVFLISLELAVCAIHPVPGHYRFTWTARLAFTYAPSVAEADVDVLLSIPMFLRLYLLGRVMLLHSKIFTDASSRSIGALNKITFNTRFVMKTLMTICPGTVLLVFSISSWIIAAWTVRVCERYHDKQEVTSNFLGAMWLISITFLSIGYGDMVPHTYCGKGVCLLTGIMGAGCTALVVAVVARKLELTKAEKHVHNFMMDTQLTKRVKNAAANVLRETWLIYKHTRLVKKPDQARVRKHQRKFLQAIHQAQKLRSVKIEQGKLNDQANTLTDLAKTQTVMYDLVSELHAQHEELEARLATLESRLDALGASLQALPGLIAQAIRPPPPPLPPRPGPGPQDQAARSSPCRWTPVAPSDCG
hanatoxin 1, sequence (P56852 50-84): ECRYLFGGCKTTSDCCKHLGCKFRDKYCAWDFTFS
hanatoxin 2, sequence (P56853 whole entry): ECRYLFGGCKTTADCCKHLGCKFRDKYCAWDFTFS
KCa2.2 (SK2), sequence (Q9H2S1 whole entry): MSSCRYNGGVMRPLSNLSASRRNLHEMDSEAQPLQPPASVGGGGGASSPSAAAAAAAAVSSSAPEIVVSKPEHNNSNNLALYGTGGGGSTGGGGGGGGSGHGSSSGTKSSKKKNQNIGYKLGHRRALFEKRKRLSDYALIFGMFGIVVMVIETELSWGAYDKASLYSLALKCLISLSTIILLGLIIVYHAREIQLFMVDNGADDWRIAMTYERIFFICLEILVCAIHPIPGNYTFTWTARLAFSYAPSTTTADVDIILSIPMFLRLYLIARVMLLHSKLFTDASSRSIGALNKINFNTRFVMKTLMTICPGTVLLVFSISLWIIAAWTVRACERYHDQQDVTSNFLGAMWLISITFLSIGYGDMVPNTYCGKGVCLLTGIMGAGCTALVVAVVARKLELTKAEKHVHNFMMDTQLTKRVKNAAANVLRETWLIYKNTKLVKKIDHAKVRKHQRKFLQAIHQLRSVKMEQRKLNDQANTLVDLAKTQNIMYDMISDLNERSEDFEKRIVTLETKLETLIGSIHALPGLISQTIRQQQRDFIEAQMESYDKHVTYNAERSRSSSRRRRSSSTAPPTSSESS
KCa2.3 (SK3), sequence (Q9UGI6 whole entry): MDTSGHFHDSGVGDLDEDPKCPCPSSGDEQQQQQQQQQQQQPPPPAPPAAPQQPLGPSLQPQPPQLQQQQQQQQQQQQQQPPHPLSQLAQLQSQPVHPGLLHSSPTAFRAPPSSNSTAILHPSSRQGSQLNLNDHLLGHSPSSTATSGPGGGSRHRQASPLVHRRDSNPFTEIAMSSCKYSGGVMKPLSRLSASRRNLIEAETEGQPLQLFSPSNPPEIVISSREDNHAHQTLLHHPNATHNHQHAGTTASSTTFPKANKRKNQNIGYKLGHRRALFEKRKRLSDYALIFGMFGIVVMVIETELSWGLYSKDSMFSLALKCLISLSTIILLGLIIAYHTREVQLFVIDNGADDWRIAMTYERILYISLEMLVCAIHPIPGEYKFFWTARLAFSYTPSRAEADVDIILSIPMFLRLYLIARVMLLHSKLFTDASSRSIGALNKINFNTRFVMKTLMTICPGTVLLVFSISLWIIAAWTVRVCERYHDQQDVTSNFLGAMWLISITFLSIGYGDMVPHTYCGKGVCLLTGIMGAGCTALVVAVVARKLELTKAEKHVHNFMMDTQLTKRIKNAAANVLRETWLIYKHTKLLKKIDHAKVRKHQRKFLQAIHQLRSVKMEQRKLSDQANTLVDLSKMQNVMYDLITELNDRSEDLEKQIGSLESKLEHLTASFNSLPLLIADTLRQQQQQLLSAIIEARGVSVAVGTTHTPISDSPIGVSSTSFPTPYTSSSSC

With apamin (from UniProt P01500) as the substance, how does the Kd (KCa2.1 (SK1)) read?
Its Kd is 390 pM.

And the Kd (KCa2.2 (SK2))?
The Kd was 4 pM.

And the Kd (KCa2.3 (SK3))?
The Kd was 11 pM.

With hanatoxin 1 (from UniProt P56852) as the substance, how does the Kd (Kv2.1 [1]) read?
The Kd was 42000 pM.

With hanatoxin 2 (from UniProt P56853) as the substance, how does the Kd (Kv2.1 [2]) read?
Its Kd is 42000 pM.
